B1: PKG (Bos taurus) (protein)
chain: MSELEEDFAKILMLKEERIKELEKRLSEKEEEIQELKRKLHKCQSVLPVPSTHIGPRTTRAQGISAEPQTYRSFHDLRQAFRKFTKSERSKDLIKEAILDNDFMKNLELSQIQEIVDCMYPVEYGKDSCIIKEGDVGSLVYVMEDGKVEVTKEGVKLCTMGPGKVFGELAILYNCTRTATVKTLVNVKLWAIDRQCFQTIMMRTGLIKHTEYMEFLKSVPTFQSLPEEILSKLADVLEETHYENGEYIIRQGARGDTFFIISKGKVNVTREDSPNEDPVFLRTLGKGDWFGEKALQGEDVRTANVIAAEAVTCLVIDRDSFKHLIGGLDDVSNKAYEDAEAKAKYEAEAAFFANLKLSDFNIIDTLGVGGFGRVELVQLKSEESKTFAMKILKKRHIVDTRQQEHIRSEKQIMQGAHSDFIVRLYRTFKDSKYLYMLMEACLGGELWTILRDRGSFEDSTTRFYTACVVEAFAYLHSKGIIYRDLKPENLILDHRGYAKLVDFGFAKKIGFGKKTWTFCGTPEYVAPEIILNKGHDISADYWSLGILMYELLTGSPPFSGPDPMKTYNIILRGIDMIEFPKKIAKNAANLIKKLCRDNPSERLGNLKNGVKDIQKHKWFEGFNWEGLRKGTLTPPIIPSVASPTDTSNFDSFPEDNDEPPPDDNSGWDIDF
notes: which were isolated from rat liver, bovine lung and bovine heart, respectively; from tissue; host or cells: bovine lung
B2: MAPKAP-K3 (Homo sapiens) (protein)
chain: MDGETAEEQGGPVPPPVAPGGPGLGGAPGGRREPKKYAVTDDYQLSKQVLGLGVNGKVLECFHRRTGQKCALKLLYDSPKARQEVDHHWQASGGPHIVCILDVYENMHHGKRCLLIIMECMEGGELFSRIQERGDQAFTEREAAEIMRDIGTAIQFLHSHNIAHRDVKPENLLYTSKEKDAVLKLTDFGFAKETTQNALQTPCYTPYYVAPEVLGPEKYDKSCDMWSLGVIMYILLCGFPPFYSNTGQAISPGMKRRIRLGQYGFPNPEWSEVSEDAKQLIRLLLKTDPTERLTITQFMNHPWINQSMVVPQTPLHTARVLQEDKDHWDEVKEEMTSALATMRVDYDQVKIKDLKTSNNRLLNKRRKKQAGSSSASQGCNNQ
notes: GST; made in house; host or cells: E. coli

Tests used:
[1] = substrate: CC(C)C[C@H](NC(=O)[C@H](CCCNC(=N)N)NC(=O)[C@H](CCCNC(=N)N)NC(=O)[C@@H](N)CCCNC(=N)N)C(=O)N[C@@H](CO)C(=O)N[C@@H](Cc1ccccc1)C(=O)N[C@@H](C)C(=O)N[C@@H](CCC(=O)O)C(=O)N1CCC[C@H]1C(=O)NCC(=O)O; test: Kinetic parameters for peptide phosphorylation, radioactive filter-binding assay; format: biochemical, bovine; conditions: other: PKG; Standard Substrate = …; 30.0 °C
Text: (§1) Apart from the AMP-activated protein kinase (AMPK, a gift from Drs S. Hawley and D. G. Hardie), cGMP-dependent protein kinase (PKG, a generous gift from Drs Susan Lohmann and Ulrich Walter, University of Wurzburg, Germany) and the catalytic subunit of cyclic AMP-dependent protein kinase (PKA, a gift from Dr C. Smythe), which were isolated from rat liver, bovine lung and bovine heart, respectively, all other protein kinases were expressed as either GST-fusion or His-tagged proteins (by a person, a person, Dr A. Paterson or a person, in this Division). The expressed proteins all corresponded to the human sequences apart from the rat Rho-dependent protein kinase (ROCK-II) and rat mitogen-activated protein kinase (MAPK) activated kinase-1a (MAPKAP-K1a, also called RSK). […]
(§2) All protein kinase assays were linear with respect to time. […] All papers were subsequently washed a further three times in phosphoric acid, once in acetone, then dried and counted for radioactivity. […] The plates were then washed six times (five min per wash) in PBS, 0.1% Tween 20 and binding of the phospho-specific antibody detected by incubating the plates with peroxidase-conjugated anti-sheep antibodies (Pierce). […] Signals were quantitated on LAS-1000IR software (FujiFilm). […]

[2] = substrate: CC(C)C[C@H](NC(=O)[C@@H](NC(=O)[C@H](CCCNC(=N)N)NC(=O)[C@H](C)NC(=O)[C@@H](N)CCCNC(=N)N)[C@@H](C)O)C(=O)N[C@@H](CO)C(=O)N[C@@H](Cc1ccccc1)C(=O)N[C@@H](C)C(=O)N[C@@H](CCC(=O)O)C(=O)N1CCC[C@H]1C(=O)NCC(=O)O; test: as above; format: biochemical, human; conditions: other: MAPKAP-K3; Standard Substrate = …; 30.0 °C
Text: as §1, §2

Protein	Km [1]	Km [2]
B1	50 µM	
B2		30 µM
